Measurements taken from patent publication US6524820B1, “Lectins and coding sequences” (University of Georgia Research Foundation, Inc., priority 1997, dated 2003).
Entries after “also recorded” stand apart in the source; their conditions may differ.

How the values were obtained:
[1] = Melibiose affinity chromatography (binding to immobilized melibiose); details: in the presence of Ca2+
Experimental: The rabbit, mouse, Xenopus laevis heart extracts, and various in vitro translation products were applied to a column of immobilized melibiose-agarose to analyze carbohydrate binding specificity. The heart extracts of rabbit, mouse, and Xenopus laevis were prepared by the method as described above and applied to a melibiose affinity column (total volume, 1 ml on Econo column) that was pre-equilibrated with TCS. After washing with 10 ml of TCS containing 0.3 M sucrose, bound protein was eluted with TCS containing 0.1 M EDTA. One ml of each fraction was collected and subjected to western blotting followed by 4-15% SDS-PAGE. Each 30 μl of in vitro translation product was diluted with 2×TCS (1:1) and applied to the melibiose column using same method. After separation of fractions on 4-15% SDS-PAGE, the results were analyzed by autoradiography.

[2] = test system: trypsinized, glutaraldehyde-fixed rabbit erythrocytes; assay: Erythrocyte agglutination assay; assay type: cell-based
Experimental: The assay was performed essentially as described using trypsinized, glutaraldehyde-fixed rabbit erythrocytes [Barondes and Roberson (1987) Methods Enzymol. 138, 516-20] in TCS buffer (10 mM Tris, pH 7.6, 10 mM CaCl2, 150 mM NaCl). To compare the agglutination properties of both the purified and recombinant lectins, the two lectins were assayed under similar conditions. Because the eluted recombinant lectin was in 8 M urea, a solution of purified non-recombinant lectin was also brought to 8 M with a concentrated urea solution. The agglutination assay was performed using […] of either recombinant or native XL35 lectin in […] TCS and 8 M urea was added to wells of a 96-well microtiter plate. Next, […] of TCS alone or TCS containing 0.4 M EDTA or 1.0 M melibiose or 1.0 M sucrose was added to the wells and mixed with the lectin solution. To this solution, 50 ml of a 1:1 suspension of trypsinized, glutaraldehyde-fixed rabbit erythrocytes in TCS was added and the contents of the wells were mixed by trituration. The final concentration of urea in the wells was 2 M, while that of EDTA was 0.10 M and that of melibiose and sucrose were 0.25 M. Agglutination activity was scored after 1.5 hr. at room temperature using an inverted microscope on low power. […]

[3] = Solubility of recombinant lectins in urea; assay type: physicochemical; details: bacterially expressed recombinant lectin
Experimental: Expression of human HL-3 and HL-13 coding sequences was performed using the same method for expression of XL-35. […] Purification and renaturation carried out as for XL35.

Row | Molecule | binding to immobilized melibiose [1] | agglutination activity retained relative to assay in TCS alone ([2]; after 1.5 hr in TCS plus 2 M urea) | agglutination of trypsinized, fixed rabbit erythrocytes ([2]; in 2 M urea) | concentration of urea required for solution [3] [M]
1 | HL-3: human calcium-dependent lectin family member, homolog of XL35, SEQ ID NO:4 (protein) MNQLSFLLFLIATTRGWSTDEANTYFKEWTCSSSPSLPRSCKEIKDECPSAFDGLYFLRTENGVIYQTFCDMTSGGGGWTLVASVHENDMRGKCTVGDRWSSQQGSKADYPEGDGNWANYNTFGSAEAATSDDYKNPGYYDIQAKDLGIWHVPNKSPMQHWRNSSLLRYRTDTGFLQTLGHNLFGIYQKYPVKYGEGKCWTDNGPVIPVVYDFGDAQKTASYYSPYGQREFTAGFVQFRVFNNERAANALCAGMRVTGCNTEHHCIGGGGYFPEASPQQCGDFSGFDWSGYGTHVGYSSSREITEAAVLLFYR | no in vitro translation products of HL-3 and HL-13 bound; also recorded: do not appear to bind specifically | – | – | –
2 | HL-13: human homolog of XL35 expressed in small intestine, SEQ ID NO:6 (protein) MLSMLRTMTRLCFLLFFSVATSGCSAAAASSLEMLSREFETCAFSFSSLPRSCKEIKERCHSAGDGLYFLRTKNGVVYQTFCDMTSGGGGWTLVASVHENDMRGKCTVGDRWSSQQGNKADYPEGDGNWANYNTFGSAEAATSDDYKNPGYYDIQAKDLGIWHVPNKSPMQHWRNSALLRYRTNTGFLQRLGHNLFGIYQKYPVKYRSGKCWNDNGPAIPVVYDFGDAKKTASYYSPYGQREFVAGFVQFRVFNNERAANALCAGIKVTGCNTEHHCIGGGGFFPQGKPRQCGDFSAFDWDGYGTHVKSSCSREITEAAVLLFYR | no in vitro translation products of HL-3 and HL-13 bound; also recorded: do not appear to bind specifically | – | – | –
3 | XL35: soluble, calcium-dependent lectin from Xenopus laevis oocytes, SEQ ID NO:2 (protein) MLVHILLLLVTGGLSQSCDPVVIVASKNMVKQLDCDKFRNCKEIKDSNEEAQDGIYTLTSPDGISYQTFCDMTTNGGGWTLVASVHENNMAGKCTIGDRWSSQQGNRADYPEGDGNWANYNTFGSAGGATSDDYKNPGYYDIEAYNLGVWHVPNKTPLSVWRNSSLQRYRTTDGILFKHGGNLFSLYRIYPVKYGIGSCSKDSGPTVPVVYDLGSANLTASFYSPGFRSQFTPGYIQFRPINTEKAALALCPGMKMESCNVEHVCIGGGGYFPEADPRQCGDFAAYDFNGYGTKKFNSAGIEITEAAVLLFYL | – | 25-50% | active | 2
